According to the Immune Epitope Database (IEDB):

Columns and labels:
[1] = biological target: HLA-A*01:01; experiment: IEDB peptide-MHC binding, purified MHC/direct/fluorescence; filed as Kd, often an IC50 or EC50 that approximates it; ≥ and ≤ were set here for values at or beyond the usual limits of such assays; conditions: source organism: Clostridium botulinum
[2] = biological target: HLA-A*02:01; experiment: as above
[3] = biological target: HLA-A*02:03; experiment: as above
[4] = biological target: HLA-A*02:06; experiment: as above; conditions: source organism: Clostridium botulinum NCTC 2916
[5] = biological target: HLA-A*02:11; experiment: as above
[6] = biological target: HLA-A*02:12; experiment: as above
[7] = biological target: HLA-A*02:19; experiment: as above
[8] = biological target: HLA-A*03:01; experiment: as above
[9] = biological target: HLA-A*11:01; experiment: as above; conditions: source organism: Clostridium botulinum
[10] = biological target: HLA-A*24:02; experiment: as above; conditions: source organism: Clostridium botulinum
[11] = biological target: HLA-A*31:01; experiment: as above; conditions: source organism: Clostridium botulinum
[12] = biological target: HLA-A*69:01; experiment: as above; conditions: source organism: Clostridium botulinum
[13] = biological target: HLA-B*07:02; experiment: as above; conditions: source organism: Clostridium botulinum
[14] = biological target: HLA-B*08:01; experiment: as above; conditions: source organism: Clostridium botulinum NCTC 2916
[15] = biological target: HLA-B*08:02; experiment: as above; conditions: source organism: Clostridium botulinum NCTC 2916
[16] = biological target: HLA-B*15:01; experiment: as above
[17] = biological target: HLA-B*15:09; experiment: as above; conditions: source organism: Clostridium botulinum NCTC 2916
[18] = biological target: HLA-B*18:01; experiment: as above
[19] = biological target: HLA-B*27:05; experiment: as above; conditions: source organism: Clostridium botulinum
[20] = biological target: HLA-B*40:01; experiment: as above; conditions: source organism: Clostridium botulinum
[21] = biological target: HLA-B*44:02; experiment: as above; conditions: source organism: Clostridium botulinum
[22] = biological target: HLA-B*46:01; experiment: as above
[23] = biological target: HLA-B*58:01; experiment: as above; conditions: source organism: Clostridium botulinum
[24] = biological target: HLA-A*31:01; experiment: IEDB peptide-MHC binding, purified MHC/competitive/fluorescence; ≥ and ≤ were set here for values at or beyond the usual limits of such assays; conditions: source organism: Homo sapiens
[25] = biological target: HLA-A*02:16; experiment: IEDB peptide-MHC binding, purified MHC/direct/fluorescence; filed as Kd, often an IC50 or EC50 that approximates it; ≥ and ≤ were set here for values at or beyond the usual limits of such assays; conditions: source organism: Bacillus anthracis str. A0488
[26] = biological target: HLA-A*23:01; experiment: as above; conditions: source organism: Bacillus anthracis str. A0488
[27] = biological target: HLA-A*26:01; experiment: as above; conditions: source organism: Bacillus anthracis str. A0488
[28] = biological target: HLA-A*68:02; experiment: as above; conditions: source organism: Bacillus anthracis str. A0488
[29] = biological target: HLA-B*15:17; experiment: as above; conditions: source organism: Bacillus anthracis str. A0488
[30] = biological target: HLA-B*27:03; experiment: as above; conditions: source organism: Bacillus anthracis str. A0488
[31] = biological target: HLA-B*39:01; experiment: as above; conditions: source organism: Bacillus anthracis str. A0488
[32] = biological target: HLA-B*57:01; experiment: as above; conditions: source organism: Bacillus anthracis str. A0488
[33] = biological target: HLA-A*01:01; experiment: IEDB peptide-MHC binding, purified MHC/competitive/fluorescence; filed as Kd, often an IC50 or EC50 that approximates it; ≥ and ≤ were set here for values at or beyond the usual limits of such assays; conditions: source organism: Bacillus anthracis str. A0488
[34] = biological target: HLA-A*11:01; experiment: as above; conditions: source organism: Bacillus anthracis str. A0488
[35] = biological target: HLA-A*30:01; experiment: as above; conditions: source organism: Bacillus anthracis str. A0488
[36] = biological target: HLA-A*30:02; experiment: as above; conditions: source organism: Bacillus anthracis str. A0488
[37] = biological target: HLA-A*66:01; experiment: as above; conditions: source organism: Bacillus anthracis str. A0488
[38] = biological target: HLA-B*07:02; experiment: as above; conditions: source organism: Bacillus anthracis str. A0488
[39] = biological target: HLA-B*08:01; experiment: as above; conditions: source organism: Bacillus anthracis str. A0488
[40] = biological target: HLA-B*14:02; experiment: as above; conditions: source organism: Bacillus anthracis str. A0488
[41] = biological target: HLA-B*27:05; experiment: as above; conditions: source organism: Bacillus anthracis str. A0488
[42] = biological target: HLA-B*40:01; experiment: as above; conditions: source organism: Bacillus anthracis str. A0488
[43] = biological target: HLA-B*44:02; experiment: as above; conditions: source organism: Bacillus anthracis str. A0488
[44] = biological target: HLA-B*51:01; experiment: as above; conditions: source organism: Bacillus anthracis str. A0488
[45] = biological target: HLA-B*53:01; experiment: as above; conditions: source organism: Bacillus anthracis str. A0488
[46] = biological target: HLA-B*58:01; experiment: as above; conditions: source organism: Bacillus anthracis str. A0488
[47] = source organism: Clostridium botulinum
[48] = source organism: Clostridium botulinum NCTC 2916
[49] = source organism: Bacillus anthracis str. A0488

RVYINVVVK
0.241 µM: Kd [8, 47]
2.15 µM: Kd [7, 48]
0.599 µM: Kd [3, 48]
≥ 20 µM: Kd [1] | Kd [10] | Kd [12] | Kd [13] | Kd [14] | Kd [15] | Kd [16, 47] | Kd [17] | Kd [18, 47] | Kd [19] | Kd [20] | Kd [21] | Kd [22, 47] | Kd [23]
0.231 µM: Kd [11]
0.484 µM: Kd [9]
0.263 µM: Kd [4]
0.603 µM: Kd [5, 48]
0.982 µM: Kd [2, 47]
0.697 µM: Kd [6, 48]

VTMGTGTFGR
0.357 µM: IC50 [24]

WDAYIPHYV
≥ 5 µM: Kd [33] | Kd [34] | Kd [35] | Kd [36] | Kd [37] | Kd [38] | Kd [39] | Kd [40] | Kd [41] | Kd [42] | Kd [43] | Kd [45] | Kd [46]
0.535 µM: Kd [44]
≥ 20 µM: Kd [2, 49] | Kd [3, 49] | Kd [5, 49] | Kd [6, 49] | Kd [25] | Kd [7, 49] | Kd [8, 49] | Kd [26] | Kd [27] | Kd [16, 49] | Kd [29] | Kd [18, 49] | Kd [30] | Kd [31] | Kd [22, 49] | Kd [32]
≤ 0.001 µM: Kd [28]
